The values that follow come from paper PMC9482650, “Quantitative fragmentomics allow affinity mapping of interactomes” (Nature Communications, 2022).

Among the targets are GRIP2_4, Q9C0E4; ARHGEF12, Q9NZN5-2; PDLIM1, O00151; CASK, O14936; MAST2, Q6P0Q8; PTPN3, P26045; MAGI2_6, Q86UL8; FRMPD2_2, Q68DX3; DLG4_1, P78352; Inadl_4, Q8NI35.
Holding throughout (assay): holdup assay
Holding throughout (design): key: below the threshold = too weak to quantify, mostly under pKd 3.1 to 4
Conditions in all cases: plain residues with an end cap or a label only (N-terminal biotin on a linker: ado-ado)

The next assay addresses T1, SIPA1L2, Q9P2F8.
T1 sequence (Q9P2F8 945-1036, limits assumed, looked up): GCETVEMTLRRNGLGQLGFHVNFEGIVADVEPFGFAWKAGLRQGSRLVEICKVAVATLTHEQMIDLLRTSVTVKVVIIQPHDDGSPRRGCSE

In a further assay the target is T2, NHERF3_3, Q5T2W1.
T2 sequence (Q5T2W1 238-333, limits assumed, looked up): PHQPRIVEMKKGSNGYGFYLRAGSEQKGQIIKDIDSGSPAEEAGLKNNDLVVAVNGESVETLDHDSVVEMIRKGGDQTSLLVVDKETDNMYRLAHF

The target of a further assay is T3, GRIP1_5, Q9Y3R0.
T3 sequence (Q9Y3R0 568-668, limits assumed, looked up): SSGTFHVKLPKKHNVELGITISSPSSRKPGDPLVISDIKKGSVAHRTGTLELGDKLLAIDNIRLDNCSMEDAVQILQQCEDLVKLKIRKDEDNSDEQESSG

The target in another assay is T4, SNTB1, Q13884.
T4 sequence (Q13884 107-205, limits assumed, looked up): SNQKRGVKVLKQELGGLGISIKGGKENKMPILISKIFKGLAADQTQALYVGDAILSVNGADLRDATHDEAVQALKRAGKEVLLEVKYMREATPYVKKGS

The target of another assay is T5, APBA2_2, Q99767.
T5 sequence (Q99767 654-744, limits assumed, looked up): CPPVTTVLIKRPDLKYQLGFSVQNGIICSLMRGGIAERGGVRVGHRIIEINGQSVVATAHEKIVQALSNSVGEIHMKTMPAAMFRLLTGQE

For the next assay, the target named is T6, MPDZ_5, O75970.
T6 sequence (O75970 695-796, limits assumed, looked up): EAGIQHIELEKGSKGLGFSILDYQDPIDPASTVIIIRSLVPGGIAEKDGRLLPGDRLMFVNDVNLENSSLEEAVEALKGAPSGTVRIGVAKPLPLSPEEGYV

The target of the next assay is T7, MPP7, Q5T2T1.
T7 sequence (Q5T2T1 134-230, limits assumed, looked up): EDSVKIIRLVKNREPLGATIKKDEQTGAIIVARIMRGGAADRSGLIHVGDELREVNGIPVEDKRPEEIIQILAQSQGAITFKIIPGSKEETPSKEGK

The next assay addresses T8, MPP2, Q14168.
T8 sequence (Q14168 180-250, limits assumed, looked up): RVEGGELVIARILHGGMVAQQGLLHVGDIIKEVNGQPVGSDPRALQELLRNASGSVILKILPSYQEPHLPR

In the next assay the target is T9, LIN7B, Q9HAP6.
T9 sequence (Q9HAP6 88-185, limits assumed, looked up): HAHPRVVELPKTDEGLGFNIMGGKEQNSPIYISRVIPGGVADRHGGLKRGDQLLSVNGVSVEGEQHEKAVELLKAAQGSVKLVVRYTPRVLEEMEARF

In the next assay the target is T10, TX1BP3, O14907.
T10 sequence (O14907 10-122, limits assumed, looked up): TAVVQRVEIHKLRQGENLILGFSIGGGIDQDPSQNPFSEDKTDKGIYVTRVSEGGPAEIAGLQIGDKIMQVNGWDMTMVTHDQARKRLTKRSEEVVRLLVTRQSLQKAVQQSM

Another assay addresses T11, NHERF3_4, Q5T2W1.
T11 sequence (Q5T2W1 373-468, limits assumed, looked up): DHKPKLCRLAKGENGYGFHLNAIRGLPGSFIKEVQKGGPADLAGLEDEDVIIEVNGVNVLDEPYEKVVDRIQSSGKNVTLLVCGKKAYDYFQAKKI

Another assay concerns the target T12, ARHGAP21, Q5T5U3.
T12 sequence (Q5T5U3 45-169, limits assumed, looked up): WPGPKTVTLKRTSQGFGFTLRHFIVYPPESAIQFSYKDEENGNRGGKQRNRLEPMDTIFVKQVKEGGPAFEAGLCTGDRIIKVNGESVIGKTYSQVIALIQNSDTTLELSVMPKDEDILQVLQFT

The next assay concerns the target T13, APBA1_2, Q02410.
T13 sequence (Q02410 742-832, limits assumed, looked up): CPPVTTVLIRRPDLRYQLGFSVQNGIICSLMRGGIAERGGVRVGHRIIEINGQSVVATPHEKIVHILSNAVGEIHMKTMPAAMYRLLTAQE

Another assay addresses T14, PDZD7_3, Q9H5P4.
T14 sequence (Q9H5P4 857-944, limits assumed, looked up): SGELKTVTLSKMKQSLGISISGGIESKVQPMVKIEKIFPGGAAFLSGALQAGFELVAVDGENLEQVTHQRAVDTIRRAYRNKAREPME

MAGI2_6, Q86UL8, sequence (Q86UL8 1141-1229): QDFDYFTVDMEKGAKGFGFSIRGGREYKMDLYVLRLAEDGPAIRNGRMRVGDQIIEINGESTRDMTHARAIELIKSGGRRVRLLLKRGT
MAST2, Q6P0Q8, sequence (Q6P0Q8 1099-1202): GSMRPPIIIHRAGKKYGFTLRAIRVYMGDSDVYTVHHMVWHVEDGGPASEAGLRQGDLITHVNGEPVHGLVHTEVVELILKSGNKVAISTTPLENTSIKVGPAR
PDLIM1, O00151, sequence (O00151 1-87): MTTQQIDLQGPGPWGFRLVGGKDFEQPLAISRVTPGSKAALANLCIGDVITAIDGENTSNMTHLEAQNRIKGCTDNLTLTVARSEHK
Inadl_4, Q8NI35, sequence (Q8NI35 547-651): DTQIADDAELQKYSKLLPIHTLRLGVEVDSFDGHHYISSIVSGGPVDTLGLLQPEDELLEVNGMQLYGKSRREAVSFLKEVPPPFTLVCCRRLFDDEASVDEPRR
FRMPD2_2, Q68DX3, sequence (Q68DX3 944-1038): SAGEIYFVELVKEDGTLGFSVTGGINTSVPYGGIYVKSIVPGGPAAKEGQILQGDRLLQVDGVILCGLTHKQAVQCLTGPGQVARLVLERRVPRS
PTPN3, P26045, sequence (P26045 505-587): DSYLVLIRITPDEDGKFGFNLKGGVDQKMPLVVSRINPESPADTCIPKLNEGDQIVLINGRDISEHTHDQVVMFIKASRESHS
DLG4_1, P78352, sequence (P78352 62-152): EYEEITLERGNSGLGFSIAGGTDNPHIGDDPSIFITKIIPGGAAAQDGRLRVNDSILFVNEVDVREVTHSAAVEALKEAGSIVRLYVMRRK
GRIP2_4, Q9C0E4, sequence (Q9C0E4 446-548): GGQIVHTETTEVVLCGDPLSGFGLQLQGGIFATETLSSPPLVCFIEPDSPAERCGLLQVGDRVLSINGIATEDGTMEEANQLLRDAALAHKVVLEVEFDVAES
ARHGEF12, Q9NZN5-2, sequence (Q9NZN5 other isoform, or with tags, fused parts or gaps): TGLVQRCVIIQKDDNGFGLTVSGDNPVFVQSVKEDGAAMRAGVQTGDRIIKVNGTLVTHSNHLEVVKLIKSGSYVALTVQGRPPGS
CASK, O14936, sequence (O14936 487-570): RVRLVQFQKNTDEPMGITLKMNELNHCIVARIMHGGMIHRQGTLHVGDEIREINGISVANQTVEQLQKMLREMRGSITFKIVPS

B1: SDC2, P34741 (peptide)
chain: QKAPTKEFYA
Consider B1, for which the pKd result in the assay with GRIP2_4, Q9C0E4 is reported as “below the threshold”; with SIPA1L2, Q9P2F8 it was “below the threshold”; in the assay with ARHGEF12, Q9NZN5-2, “below the threshold”; with NHERF3_3, Q5T2W1, “below the threshold”; with GRIP1_5, Q9Y3R0 it was “below the threshold”; with SNTB1, Q13884, “below the threshold”. For the same molecule, the pKd result in the assay with PDLIM1, O00151 was “below the threshold”; with CASK, O14936, “below the threshold”; with MAST2, Q6P0Q8 it was 3.82; in the assay with APBA2_2, Q99767, “below the threshold”; with PTPN3, P26045, 4.2; with MPDZ_5, O75970 it was 3.48. In addition, the pKd result in the assay with MPP7, Q5T2T1 is “below the threshold”; with MPP2, Q14168, “below the threshold”; with MAGI2_6, Q86UL8, “below the threshold”; in the assay with FRMPD2_2, Q68DX3 it was 3.61; in the assay with LIN7B, Q9HAP6, 3.53; with DLG4_1, P78352, “below the threshold”. For the same molecule, the pKd entry in the assay with TX1BP3, O14907 was “below the threshold”; with NHERF3_4, Q5T2W1 it was 3.82; with ARHGAP21, Q5T5U3 it was “below the threshold”; with APBA1_2, Q02410, “below the threshold”; with PDZD7_3, Q9H5P4, “below the threshold”; in the assay with Inadl_4, Q8NI35 it was “below the threshold”.

B2: ABCA2, Q9BZC7 (peptide)
chain: QLSFNTDTLC
For the molecule B2, the pKd entry in the assay with GRIP2_4, Q9C0E4 was “below the threshold”; with SIPA1L2, Q9P2F8, “below the threshold”; in the assay with ARHGEF12, Q9NZN5-2 it was “below the threshold”; in the assay with NHERF3_3, Q5T2W1, “below the threshold”; in the assay with GRIP1_5, Q9Y3R0, “below the threshold”; with SNTB1, Q13884, 3.59. Moreover, the pKd entry with PDLIM1, O00151 is “below the threshold”; with CASK, O14936 it was “below the threshold”; with MAST2, Q6P0Q8, 4.79; with APBA2_2, Q99767 it was “below the threshold”; with PTPN3, P26045 it was 4.09; with MPDZ_5, O75970, “below the threshold”. Moreover, the pKd result with MPP7, Q5T2T1 is “below the threshold”; in the assay with MPP2, Q14168 it was “below the threshold”; with MAGI2_6, Q86UL8 it was “below the threshold”; with FRMPD2_2, Q68DX3 it was “below the threshold”; with LIN7B, Q9HAP6 it was 3.66; with DLG4_1, P78352 it was 3.7. Also, the pKd with TX1BP3, O14907 was 4.04; in the assay with NHERF3_4, Q5T2W1 it was “below the threshold”; with ARHGAP21, Q5T5U3, “below the threshold”; in the assay with APBA1_2, Q02410, “below the threshold”; in the assay with PDZD7_3, Q9H5P4, “below the threshold”; with Inadl_4, Q8NI35, “below the threshold”.

B3: ADGRA3, Q8IWK6 (peptide)
chain: TGLWKHETTV
For the molecule B3, the pKd entry with GRIP2_4, Q9C0E4 was “below the threshold”; with SIPA1L2, Q9P2F8, “below the threshold”; in the assay with ARHGEF12, Q9NZN5-2, 4.06; with NHERF3_3, Q5T2W1, “below the threshold”; in the assay with GRIP1_5, Q9Y3R0 it was “below the threshold”; with SNTB1, Q13884, 4.84. The pKd entry in the assay with PDLIM1, O00151 is “below the threshold”; with CASK, O14936, “below the threshold”; with MAST2, Q6P0Q8, 5.47; with APBA2_2, Q99767, “below the threshold”; with PTPN3, P26045 it was 4.5; with MPDZ_5, O75970, “below the threshold”. Also, the pKd entry is “below the threshold” with MPP7, Q5T2T1; “below the threshold” with MPP2, Q14168; 3.86 with MAGI2_6, Q86UL8; 3.76 with FRMPD2_2, Q68DX3; 4.04 with LIN7B, Q9HAP6; 5.21 with DLG4_1, P78352. Moreover, the pKd with TX1BP3, O14907 was 5.08; with NHERF3_4, Q5T2W1, “below the threshold”; with ARHGAP21, Q5T5U3, 3.92; with APBA1_2, Q02410, 3.59; in the assay with PDZD7_3, Q9H5P4, 4.99; with Inadl_4, Q8NI35, “below the threshold”.

B4: PRKACA, P17612 (peptide)
chain: EKCGKEFSEF
As to B4, the pKd result in the assay with GRIP2_4, Q9C0E4 is reported as “below the threshold”; in the assay with SIPA1L2, Q9P2F8, “below the threshold”; with ARHGEF12, Q9NZN5-2 it was “below the threshold”; with NHERF3_3, Q5T2W1, “below the threshold”; in the assay with GRIP1_5, Q9Y3R0, “below the threshold”; with SNTB1, Q13884, “below the threshold”. Besides, the negative-log Kd (pKd) result in the assay with PDLIM1, O00151 is “below the threshold”; in the assay with CASK, O14936, “below the threshold”; with MAST2, Q6P0Q8, 5.08; in the assay with APBA2_2, Q99767 it was “below the threshold”; with PTPN3, P26045, 3.98; in the assay with MPDZ_5, O75970, “below the threshold”. In addition, the pKd result with MPP7, Q5T2T1 is “below the threshold”; with MPP2, Q14168, “below the threshold”; in the assay with MAGI2_6, Q86UL8, “below the threshold”; with FRMPD2_2, Q68DX3, “below the threshold”; with LIN7B, Q9HAP6 it was 3.92; with DLG4_1, P78352, “below the threshold”. In addition, the pKd entry was “below the threshold” with TX1BP3, O14907; “below the threshold” in the assay with NHERF3_4, Q5T2W1; “below the threshold” with ARHGAP21, Q5T5U3; “below the threshold” in the assay with APBA1_2, Q02410; “below the threshold” with PDZD7_3, Q9H5P4; “below the threshold” with Inadl_4, Q8NI35.

Broadly, the pKd is the Kd on a negative log10 scale, so that one unit is a factor of ten.
